Target: T1, Insulin from Porcine Pancreas (antigen) (Sus scrofa, UniProt P01315)
T1 construct: Insulin from Porcine Pancreas; purchased SIGMA 1-5523; host or cells: porcine pancreas (tissue-derived)
Assay: Guinea pig ID immunization with porcine insulin; antigen/antibody complex by Dextran coated Charcoal Radioimmunoassay
Assay type: in vivo, Dunkin Hartley male Guinea Pigs
Procedure: Various animals (e.g., Guinea pigs) are used in industry to produce primary and secondary antibodies for biological and clinical research, based on immunoassay methods (e.g. ELISA). In some of these animals the specific antigen is injected intradermally, in order to achieve a larger and/or faster immune response (antibodies production). After the primary immunization, several immunization boosters are given at different time intervals, and blood is collected. The antibodies production level is measured by measuring the antigen/antibody complex formation levels, in different dilution levels, using conventional immunoassay methods. Usually, a fixed cut-off value (percentage of antigen/antibodies complex formation in a specific dilution level) must be achieved.
18 Dunkin Hartley male Guinea Pigs were divided into two groups. The animals were anesthetized with a 0.2 ml of Ketamine/Xylazine mixture (1:1 ratio) I.M. Anesthetizing was followed by 0.1 ml I.D. immunization with Insulin from Porcine Pancreas (SIGMA, Cat. No. 1-5523) in a Freund's adjuvant emulsion mixture (SIGMA), injected in 4 sites on the skin. […] After plasma separation, antigen/antibody complex levels were detected in the 2 ml serum sample, using a Dextran coated Charocal Radioimmunoassay method.

T1 sequence (P01315 25-54 limits assumed): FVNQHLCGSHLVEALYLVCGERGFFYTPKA
T1 sequence (P01315 88-108 limits assumed): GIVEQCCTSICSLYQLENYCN

Which “production time needed to achieve the per-protocol cut-off value, microneedle versus regular injection” value (cut-off 50% Antigen/Antibody complex formation at dilution 1:80 K, microneedle vs regular 25 g needle) does the source give for “Insulin from Porcine Pancreas: Insulin from Porcine Pancreas (SIGMA) in a Freund's adjuvant emulsion mixture, used as immunizing antigen” here?
Its value is 3 times shorter.

What about the “Antigen/Antibody complex formation, Ka [L/mol] values, microneedle versus regular injection” value (dilution level 1:80K, ID microneedles (Nano) vs regular 25 g hypodermic needle, in Freund's adjuvant) of the same substance?
Its value is “more than 3 times higher”.
